Measurements: paper PMC7659714 (The Journal of Cell Biology, 2020)

B1: YFP-CPT1C, wild type, for FRET (CPT1C-SYFP2) (natural protein, human, UniProt Q8TCG5 1-803, looked up)
chain: MAEAHQAVGFRPSLTSDGAEVELSAPVLQEIYLSGLRSWKRHLSRFWNDFLTGVFPASPLSWLFLFSAIQLAWFLQLDPSLGLMEKIKELLPDWGGQHHGLRGVLAAALFASCLWGALIFTLHVALRLLLSYHGWLLEPHGAMSSPTKTWLALVRIFSGRHPMLFSYQRSLPRQPVPSVQDTVRKYLESVRPILSDEDFDWTAVLAQEFLRLQASLLQWYLRLKSWWASNYVSDWWEEFVYLRSRNPLMVNSNYYMMDFLYVTPTPLQAARAGNAVHALLLYRHRLNRQEIPPTLLMGMRPLCSAQYEKIFNTTRIPGVQKDYIRHLHDSQHVAVFHRGRFFRMGTHSRNSLLSPRALEQQFQRILDDPSPACPHEEHLAALTAAPRGTWAQVRTSLKTQAAEALEAVEGAAFFVSLDAEPAGLTREDPAASLDAYAHALLAGRGHDRWFDKSFTLIVFSNGKLGLSVEHSWADCPISGHMWEFTLATECFQLGYSTDGHCKGHPDPTLPQPQRLQWDLPDQIHSSISLALRGAKILSENVDCHVVPFSLFGKSFIRRCHLSSDSFIQIALQLAHFRDRGQFCLTYESAMTRLFLEGRTETVRSCTREACNFVRAMEDKEKTDPQCLALFRVAVDKHQALLKAAMSGQGVDRHLFALYIVSRFLHLQSPFLTQVHSEQWQLSTSQIPVQQMHLFDVHNYPDYVSSGGGFGPADDHGYGVSYIFMGDGMITFHISSKKSSTKTDSHRLGQHIEDALLDVASLFQAGQHFKRRFRGSGKENSRHRCGFLSRQTGASKASMTSTDF
B2: CPT1CM589S (malonyl-CoA-insensitive CPT1C) expressed in HEK cells for co-immunoprecipitation (natural protein, UniProt Q8BGD5 1-798, looked up)
chain: MAEAHQASSLLSSLSSDGAEVELSSPVWQEIYLCALRSWKRHLWRVWNDFLAGVVPATPLSWLFLFSTIQLACLLQLDPSLGLMEKIKELLPDWGGQHHQLQGFLSAAVFASCLWGALIFTLHVALRLLLSHHGWLLEPHGAMSSPTKTWLALVRIFSGRHPRLFSFQRALPRQPVPSAQETVRKYLESVRPVLGDDAFDRATALANDFLRLHAPRLQLYLQLKSWCTSNYVSDWWEEFVYLRSRGSLINSTYYMMDFLYVTPTPLQAARAGNAVHTLLLYRHLLNRQEISPTLLMGMRPLCSAQYERMFNTTRIPGVEKDHLRHLQDSRHVAVFHRGRFFRVGTHSPNGLLSPRALEQQFQDILDDPSPACPLEEHLAALTAAPRSMWAQVRESVKTHAATALEAVEGAAFFVSLDSEPAGLTREDPAASLDAYAHALLAGRGHDRWFDKSFTLIVFSNGKLGLSVEHSWADCPVSGHLWEFTLATECFQLGYATDGHCKGHPDPTLPQPQRLQWDLPEQIQPSISLALRGAKTLSGNIDCHVFPFSHFGKSFIKCCHVSSDSFIQLVLQLAHFRDRGQFCLTYESASTRLFLEGRTETVRSCTREACQFVRAMDNKETDQHCLALFRVAVDKHQALLKAAMSGQGIDRHLFALYIMSRLLHMQSPFLTQVQSQQWLLSTSQVPVQQTHLIDVHNYPDYVSSGGGFGPAHDHGYGISYIFMGENAITFHISSKKSSTETDSHRLGQHIENALLDVASLFRVGQHFKRQFRGENSDYRYNFLSCKTVDPNTPTSSTNL
B3: YFP-CPT1CM589S for FRET (natural protein, UniProt Q8BGD5 1-798, looked up)
chain: B2 chain
B4: CPT1CΔCterm-FLAG (truncated CPT1C, last 39 aa replaced by FLAG) expressed in HEK cells for co-immunoprecipitation (domain or fragment, UniProt Q8BGD5 1-759, looked up)
chain: MAEAHQASSLLSSLSSDGAEVELSSPVWQEIYLCALRSWKRHLWRVWNDFLAGVVPATPLSWLFLFSTIQLACLLQLDPSLGLMEKIKELLPDWGGQHHQLQGFLSAAVFASCLWGALIFTLHVALRLLLSHHGWLLEPHGAMSSPTKTWLALVRIFSGRHPRLFSFQRALPRQPVPSAQETVRKYLESVRPVLGDDAFDRATALANDFLRLHAPRLQLYLQLKSWCTSNYVSDWWEEFVYLRSRGSLINSTYYMMDFLYVTPTPLQAARAGNAVHTLLLYRHLLNRQEISPTLLMGMRPLCSAQYERMFNTTRIPGVEKDHLRHLQDSRHVAVFHRGRFFRVGTHSPNGLLSPRALEQQFQDILDDPSPACPLEEHLAALTAAPRSMWAQVRESVKTHAATALEAVEGAAFFVSLDSEPAGLTREDPAASLDAYAHALLAGRGHDRWFDKSFTLIVFSNGKLGLSVEHSWADCPVSGHLWEFTLATECFQLGYATDGHCKGHPDPTLPQPQRLQWDLPEQIQPSISLALRGAKTLSGNIDCHVFPFSHFGKSFIKCCHVSSDSFIQLVLQLAHFRDRGQFCLTYESAMTRLFLEGRTETVRSCTREACQFVRAMDNKETDQHCLALFRVAVDKHQALLKAAMSGQGIDRHLFALYIMSRLLHMQSPFLTQVQSQQWLLSTSQVPVQQTHLIDVHNYPDYVSSGGGFGPAHDHGYGISYIFMGENAITFHISSKKSSTETDSHRLGQHIENALLDVASL

Tests used:
[1] = target: T1, GluA1 expressed in HEK cells (mTurquoise2-GluA1) (mouse, UniProt P23818 19-907); assay: FRET or BRET
[2] = target: T1, GluA1 expressed in HEK cells …; assay: co-IP

T1 sequence (P23818 19-907): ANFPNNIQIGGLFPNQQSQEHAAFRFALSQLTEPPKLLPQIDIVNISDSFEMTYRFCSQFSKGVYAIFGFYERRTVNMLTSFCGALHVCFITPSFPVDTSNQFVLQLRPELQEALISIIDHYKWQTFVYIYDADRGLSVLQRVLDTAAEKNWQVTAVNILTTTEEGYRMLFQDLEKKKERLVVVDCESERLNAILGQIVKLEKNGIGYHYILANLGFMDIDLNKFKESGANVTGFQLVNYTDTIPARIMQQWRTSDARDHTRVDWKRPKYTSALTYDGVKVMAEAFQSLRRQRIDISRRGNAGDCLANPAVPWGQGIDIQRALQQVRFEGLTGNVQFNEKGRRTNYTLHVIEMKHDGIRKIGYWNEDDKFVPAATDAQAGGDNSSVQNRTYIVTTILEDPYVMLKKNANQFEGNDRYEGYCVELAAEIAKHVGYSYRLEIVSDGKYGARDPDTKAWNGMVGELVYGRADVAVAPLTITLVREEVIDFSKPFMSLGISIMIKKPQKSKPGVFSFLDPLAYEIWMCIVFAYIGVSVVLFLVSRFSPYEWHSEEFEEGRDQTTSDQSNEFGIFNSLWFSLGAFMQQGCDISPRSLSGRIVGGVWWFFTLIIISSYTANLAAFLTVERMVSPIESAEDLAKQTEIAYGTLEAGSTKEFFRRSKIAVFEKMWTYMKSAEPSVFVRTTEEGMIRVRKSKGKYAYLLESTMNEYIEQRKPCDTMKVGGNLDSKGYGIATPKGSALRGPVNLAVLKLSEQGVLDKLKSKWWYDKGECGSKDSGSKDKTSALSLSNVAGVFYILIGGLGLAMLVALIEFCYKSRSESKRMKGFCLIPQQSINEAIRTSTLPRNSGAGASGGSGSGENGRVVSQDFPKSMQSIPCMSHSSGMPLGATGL

Binder	percentage of FRET efficiency [1]	coimmunoprecipitated CPT1C versus immunoprecipitated GluA1, relative to WT CPT1C [2]
B1	8.7%	
B2		0.85 ratio to GluA1 + WT CPT1C (1.00)
B3	9.51%	
B4		0.12 ratio to GluA1 + WT CPT1C (1.00)
